# T1: Interferon regulatory factor 3 (human (endogenous in A375)), Q14653
# T1 chain: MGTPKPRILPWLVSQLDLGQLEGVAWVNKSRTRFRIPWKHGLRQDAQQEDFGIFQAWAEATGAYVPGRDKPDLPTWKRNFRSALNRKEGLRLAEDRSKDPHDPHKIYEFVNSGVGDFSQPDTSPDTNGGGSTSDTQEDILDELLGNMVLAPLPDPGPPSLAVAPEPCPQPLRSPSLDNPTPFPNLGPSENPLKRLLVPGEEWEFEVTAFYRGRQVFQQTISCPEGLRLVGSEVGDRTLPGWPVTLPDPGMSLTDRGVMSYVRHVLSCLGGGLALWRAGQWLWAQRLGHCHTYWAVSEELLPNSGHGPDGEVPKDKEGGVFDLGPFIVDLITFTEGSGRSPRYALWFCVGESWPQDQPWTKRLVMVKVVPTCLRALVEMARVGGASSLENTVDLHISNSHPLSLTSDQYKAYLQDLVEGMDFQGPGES
# B1: Interferon regulatory factor 3, Q14653 1-427 (natural protein)
# chain: T1 chain
# Target: T1, Interferon regulatory factor 3 (human …)
# Assay: cross-linking; covalent cross-link formed in cells (TG2-dependent), seen by Western blot of SDS-polyacrylamide gels under denaturing conditions; A375 cells treated with doxorubicin 5 μM for 6, 16 and 24 h; HeLa cells too
# Settings: remark: other sources report otherwise
binder,measurement,value
B1,stoichiometry N,2
